Experimental data as given in US20040014649A1 (RIGEL PHARMACEUTICALS, published 2004).

What was measured:
[1] = molecular target: T1, human B-cell associated protein-37 (human BAP-37) (human, UniProt O35129 1-299 (mouse entry), limits assumed); test: cell-based or functional assay
[2] = molecular target: T1, human B-cell associated protein-37 …; test: cell-based or functional assay; remark: listed apart in the source

T1 sequence (O35129 whole entry): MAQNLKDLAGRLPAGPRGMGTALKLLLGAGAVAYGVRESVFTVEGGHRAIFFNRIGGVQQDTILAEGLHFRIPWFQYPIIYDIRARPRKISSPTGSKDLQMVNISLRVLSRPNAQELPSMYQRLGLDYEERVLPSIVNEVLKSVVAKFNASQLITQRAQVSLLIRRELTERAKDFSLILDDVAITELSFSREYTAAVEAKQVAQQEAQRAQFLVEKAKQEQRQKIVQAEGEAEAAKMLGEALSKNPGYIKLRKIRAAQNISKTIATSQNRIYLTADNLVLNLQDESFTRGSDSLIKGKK

Binder	Reporter Ratio (A5T4 reporter line, IL-4 induced germline epsilon transcription) [1]	endogenous epsilon inhibition ratio (TAQMAN quantitative PCR, +IL-4/+Dox to +IL-4/-Dox) [2]
TGVHVELQINRSIMHYISSP [peptide CL08wt]	1.39	2.15
TGAAVELQINRSIMHYISSP [peptide CL08VH]	1.17	–
TGVHVELQIAASIMHYISSP [peptide CL08NR]	1.6	–
